Measurements taken from the DeepSol protein solubility set.

assay: soluble on expression in E. coli; label from the status in PepcDB or PDB records

| Sequence | soluble on expression in E. coli |
| --- | --- |
| MGSDKIHHHHHHTQKPDITYMPQPPFNPPTYVCYKAPAPIKIDGKLSPGEWDAIPWTSDFVDIEGDKRPAPHFQTRAKMTYDDNGMYFAVLMEEPHVWATITEHDAVIFHDNDFEIFLNPTNDTHNYLEYEVNALGTEWDLFLTRPYRDNPQVLNNWEFTGMKSAVYVDGTLNNPKDTDKSWSVEVFIPWTSVFQMDRGKEKPEIGEQIRVNFSRVEWTTDVKDGKYVKVPIQGEDKIREYNWVWAPTGVINIHMPEYWGYVQISDKIAGEGETPFVKHPSEETKWILRNLYYRQNEFAATFGHYADNINDLKANELCPQEIANQLEIHTTPSMYEISLPAPDGTVWNIRQDGLVWPKKK | not soluble |
| MGSDKIHHHHHHVAASPLRGRTPHRRGPRACRRGPLPRVGAGGLRQMTATEAYLQKGWLRFAAEESIRDWAAHAQRCAETATADPAHAKWLDCEGTWFIGVDALPNDPDGRLPSGPPLEGAALDFIRAHFGEIPALHRAQLSVIYPGYPRPRRGESDAAFGYRCKRDGAHVDGIKIYGTARRRRVEEPHAWVLGLPLNKTSKNAAPLVVWEGSHLIMREAFRLAFEGIALEDWAHVDITDIYTAARREVFETCKRVEVHANPGEAYLMHRLCLHGVAPWADGASATDGAGRMIAYFRPEMPNWQAHWLSDL | not soluble |
| MGSDKIHHHHHHVAETTTEQTIQKASSAIHYNAFSHNDYWRERPLLDALSFRFNCVEADLWLIDDELYVSHDRPEPNPAITFENLYLKPLVARIQANGGKVYPGSDRPFYLMVDCKAQGEEMYKLLKKQMEPYKEYFCSVDNGEYKEGAVLFFLSGDRPKNSLPKENSRFTFLDGQIKDLGQGIPASLAPVISDNYSDFFTWKGEGEMPADQLQKMREIIRKVHDEGKLFRWWGAPDTEQFKRFFIKEGVDLVGADDLNGLYNVLNER | not soluble |
| MGSDKIHHHHHHVGTVNVRSGRMRYFTNRDAPLDVEHVMAPAAFPPGFPAVRLEAESYWDGGIYSNTPLEAVLDDRPRRDSVIFSVQLWPSSGPEPESILQVMSRQRDIQYSSRAESHLDRQKQIHRLRHVIRELGQHLPEEQRNAPAVRELLDWGCGTTMQVLELDAPAFDNDDLNRDIDFSSAGIERRWRAGYEDTARLLKLAPWRETLDPMEGISVFRMASAESRK | not soluble |
| MGSDKIHHHHHHVIEVIRQRVLPHYGLEGNAAKVSPLGNGHINDTFLVTWDEGSMVLQRLNTSVFQAPWTLVENAELISRHLGEKEGKDYELKVVSPKTTAEGDLGIDLGEAGFWRAIRYLKHSNSIDVVGSEAQAEQAARAFGHFARALCDFDATRIGDVIPKFHFLPGRLAALEQAAADNKAGRLDTCREWVDFALCQRGLLDELAALEPKLPLRVCHNDTKINNMLFDKRDDSAMAIIDLDTCMKGHLMYDFGDMVRTFTSPEAEDSTALDKVRVRPEIFAAICRGYLAELGDVLEAAERESLWLGARIMCLMIGVRFLTDYLNGDLYFHVHREGHNLDRAANQFTLYQSLLTQADRLKPCIF | not soluble |
| MGSDKIHHHHHHVIKLIRQFVLPHFGIDATEAKISALGNGHINETLLVRWPTGELVLQRINTQVFKTPQALVSNADKISHHLCAKALQQQYGLKVVSPCLTKEGELALDLGEQGFWRAISYLPHSHSIEVVKSEKEAEMAAKAFGHFASALSDFDATQLEDVIPQFHHLPGRMALLKQAVELDSQHRLAFCRHWVDYAVSQQALLDELAEISPKLPLRICHNDTKINNMLFDKRDMSSMAIIDLDTCMKGHLMYDFGDMVRTFCSPEAEDSTALENVKVRQSIFAAICRGYLSELGNVLTEVEKRSLWLGARVICLMIGVRFLTDYLNGDVYFHIHREGHNLDRAANQFTLYQSLLDQDVALKACFELNPLSAVEHS | not soluble |
| MGSDKIHHHHHHVNFRDLGGYPVGDGRRTRWGRLFRSDSLGALTEEDLALVAALDLYRVVDFRLPHERELHPNRLPVGAGPKVTEIGFWPDGVPEMLKALRELRIDAAGIERAVTGHYRRYAVHHRAEYRRMLEAVEEAAGRPTLIHCVSGKDRTGFGAAVILMALGVPRTVIVEDYLLTNDCRRDIGHLMPSGTTESVAEAFTAARPAYIEAAFESIDTAFGGIDDYLAHGLGFGEQRLQRLRECLTEPATGSASLLSPRRAGNP | not soluble |
| MGSDKIHHHHHHVTSGQDKPWPPVSMGMARLTTMAFHGENMVPPAIELLKRSEADPTDSAALLDLSAIHFLLGHEEAGLAYQERALAQNQVYRDHSETASEDGVRLLAFAAPGNLMSNVPIQFLIENSDIRLDVLYVVPGLDLPERVPAHDMAMVIAGESEPNREVLERIAAFADLWPCPPVLNDPRKVLQLSRDGVSSLLSGVPGIRIPATTRVDPESLARLGRGEIALTDLLPDGSFPVIARPLDSHAGKGLAKLDDPSTIALYLAAQPAEGYYLSSFVDYRGAGGMFRKYRIALIDGKPFVCHMAVSAHWMIHYLNADMRESAEKRAEEAQAFATFDEDFAARHKDAFATMAERIGLDYFAMDCAETPDGDLLVFEADTAMIVHAMDPPDIFPYKAPQMRRIFKAFQDMLRRIKQDKQD | not soluble |
| MGSDKIHHHHHHVVNQAQKMNFLTHLHLADISKTHLAANVAGNYIQAPIAQAPVEFRQALWLNQEINTLCASHELTIELMEAFPAPLRSIAAELMAVSFDYYLAYYWEEYHHQPLNEFSHKAYDALENFAAQGIDQYHPEALIKLLPTIRSQDWLGSYATENGLQQALAQVAKPHPQAALFKDAHKVVNKMQIEIETTFRTFYPQLMAYSRIWSRKTPAEYLP | not soluble |
| MGSDKIHHHHHHYAVQPKDDKKENEALQTSTEEHLPLLTINGTNASSSFIVNSEALLGKEITITAPNGFTVTPTVIAANSGKQKVKVTLNSTKRLTEGKIILRSGDVRSYLKVKGYGTALPVKDIAASPAYKKGNDKEFTKAFTPNSKGYTIEFKIKTDDSEKSFYPYFVNEKGYGFKAYITSNEIGLFNAYKKEITNPATNGKAGGKGKFYNNDGQAHIYRFAITPDNRAFIYRDGIPVDSVRIIDYAPQPNFAEKVGKPVENLLKNPNFEGEFDINPETKLVSRVEGWDVVISDRWNSEQQILPEEIDNNQDLDNHVFEIRPYKWAAGWSDGILMQVVDVVPNENYTLSALLKGGIAKKEGKLTGKMIIEEVQDPEKKVITEIASDNWETYSMDYTTSAECNQIRVSFTVGRGGWGNDIGAVRVDNAKLTGTSRTYSPKFGFIDNTADVEYFTIDESGAYAPAQPEITINIED | not soluble |
| MGSDKIHHHHHHYGLGRSWAPGLSQLDGVPRLGGTLDAPLVLNDASELSATPIHIHTRPAAHGDALIEAFRAELTAAQAEDRPVCVSAARHSMGGQSLPRGGHAITVDNAWIEPDTANQTYRVNGGARWRDVIAALDPIGFSPAVMQSNHDFGVAATFSVNAHGWPVPYGPMGATVREIRMVLPGGDLVTASRTENTDLFNLAVGGYGLAGLIVDMEVDMVPNQRLAPSFTPMPAADFPAAFRAAVDDPTMPMGYGRLNVTRESLFEEALLVTYSPTPDQSDIPPAIESGWLSYAASYLYRGQVGREGMKDWRWWVEADLGPRLAGESTRNSLMNEPVITLDDRDPTRVDILHEYFVPFDAFDGFLEACRDVIPDAFVEFLNVTLRFVDSDTDSLLPHSPTPRIAAVMSFTQEKTTRAEADHARMTRALIDRIVAIGGTYYLPYRPHATLDQFTAAYPNAPEFAAAKRALDPTLTLRNNLWDSYLADL | not soluble |
| MGSHHHHHHDITSLYKKAGSAAAVLEENLYFQGSFTMLHEIPKSEILKELKRIGAKRVLIQSPEGLRREAEELAGFLEENNIEVFLHGEINYGACDPADREAKLVGCDALIHLGHSYMKLPLEVPTIFVPAFARVSVVEALKENIGEIKKLGRKIIVTTTAQHIHQLKEAKEFLESEGFEVSIGRGDSRISWPGQVLGCNYSVAKVRGEGILFIGSGIFHPLGLAVATRKKVLAIDPYTKAFSWIDPERFIRKRWAQIAKAMDAKKFGVIVSIKKGQLRLAEAKRIVKLLKKHGREARLIVMNDVNYHKLEGFPFEAYVVVACPRVPLDDYGAWRKPVLTPKEVEILLGLREEYEFDEILGGPRESDEPFGISIHSTR | soluble |
| MGSHHHHHHSQDPMMSRLKTAVYDYLNDVDITECTEMDLLCQLSNCCDFINETYAKNYDTLYDIMERDILSYNIVNIKNTLTFALRDASPSVKLATLTLLASVIKKLNKIQHTDAAMFSEVIDGIVAEEQQVIGFIQKKCKYNTT | soluble |
| MGSIEEVLLEERLIGYLDPGAEKVLARINRPSKIVSTSSCTGRITLIEGEAHWLRNGARVAYKTHHPISRSEVERVLRRGFTNLWLKVTGPILHLRVEGWQCAKSLLEAARRNGFKHSGVISIAEDSRLVIEIMSSQSMSVPLVMEGARIVGDDALDMLIEKANTILVESRIGLDTFSREVEELVECFAAALEHHHHHH | soluble |
| MGSSHHHHHHGGTGENLYFQGGSGPSSVAYVLGTESCGKTDLVHQLEYLTLGLVRTVPTACTPTTGQEVTKLNICSPAGKGKVTVEVRELGGSLVNTWESFIESRKARDGGSGDTSFLLIYVVDGVAPHQLPLASTMFRYLTQGRHAPCAGWPTLITVQKCASVNAITAEEVRSFFLDEVEAPANVDVVEVDSWNGIGTGDVLKGIEAVFGGLQ | not soluble |
| MGSSHHHHHHGKTIFVIVPTNEEQVAFLEALAKQDELNFDWQNPPTEPGQPVVILIPSDMVEWFLEMLKAKGIPFTVYVEEGGSENLYFQGGGGGGDRMRQGWLRSSAALLERVHGHLKDQDRIFTNLYNDFGTGIDAAERRGDWYRTKDILLKGHDWVINEIKASGLRGRGGAGFPSGLKWSFMPKKKQDDRPSYIVVNCDESEPGTCKDREIMRHEPHKVVEGALLAGFAMRARYGYIYIRGEFYNEWRSVEKAIHEAYEKGYLGKNACGSGWDFDLYTYRGAGAYICGEETAMIASIEGGQGKPRLKPPFPANVGLYGCPTTVTNCETVAVSPTIIRRGPQWFAQFGRKGNAGTKLFCISGHVNRPCTVEEEMSMPLRELLERHAGGVRGGWDNLLCVIPGGSSCPLIPKHICDDILMDYDALKEAQTGLGTAAVIVMDKSTDVINAIERLSQFYMHESCGQCTPCREGSPWLDKMMKRFVNGNAKKEEIYTLWDVSKQMEGRSICALGTAAAWPVQGLIRHFKPLMEERIERFWEANPHWGQPGSPWRRWKTHRYYTMQKGDRLNWDGKIVRNWN | not soluble |
| MGSSHHHHHHSSENLYFQGHMLANNNKRSKLSTVPSSRPIRVGFVGLTSGKSWVAKTHFLAIQQLSSQFQIVALYNPTLKSSLQTIEQLQLKHATGFDSLESFAQYKDIDMIVVSVKVPEHYEVVKNILEHSSQNLNLRYLYVEWALAASVQQAEELYSISQQRANLQTIICLQGRKSPYIVRAKELISEGCIGDINSIEISGNGGWYGYERPMRSPEYLYDIESGVNLISNSFGHTIDVLQYITGSYFQKINAMISNNIPTQFLLDENGKRTKETISKTCPDHLLFQGILENGKVPVSCSFKGGTPVKKLTKNLVIDIHGTKGDLKIEGDAGFVEISNLVLYFYGIKNGNGSSNGTDNNGAAAIKDKEKVTKSPSPSTGTSEEEQTMEVFHLRNYNSVVGNILRIYESIADYHFLGKPESKSSRGPDDLFASTKFDKQGFRFEGFPTFKDAIILHRLIDAVFRSDKEEKTLDVSKIMI | soluble |
| MGSSHHHHHHSSGLVPRGSDLQEDEDGVYFSSYGHYGIHEEMLKDKIRTESYRDFIYQNPHIFKDKVVLDVGCGTGILSMFAAKAGAKKVLGVDQSEILYQAMDIIRLNKLEDTITLIKGKIEEVHLPVEKVDVIISEWMGYFLLFESMLDSVLYAKNKYLAKGGSVYPDICTISLVAVSDVNKHADRIAFWDDVYGFKMSCMKKAVIPEAVVEVLDPKTLISEPCGIKHIDCHTTSISDLEFSSDFTLKITRTSMCTAIAGYFDIYFEKNCHNRVVFSTGPQSTKTHWKQTVFLLEKPFSVKAGEALKGKVTVHKNKKDPRSLTVTLTLNNSTQTYGLQ | soluble |
